# According to US20170362324A1 (Biogen, published 2017):
# Positions count from the first letter of the chain named. Names may count otherwise.
# B1: VH0/VL0 Agly-hIgG1(T299A) (antibody, V domains shown)
# VH: EVQLVESGGGLVKPGGSLRLSCAASGYTFTSYWMHWVRQAPGKGLEWVGAIYPGNSDTSYNQKFKGRFTISRDDSKNTLYLQMNSLKTEDTAVYYCTTTTYGYDWFAYWGQGTLVTVSS
# VL: DIQMTQSPSSVSASVGDRVTITCKSSQSVLYSSNQKNYLAWYQQKPGKAPKLLIYWASTRESGVPSRFSGSGSGTDFTLTISSLQPEDFATYYCHQYLSSLTFGQGTKVEIK
# notes: also called H0/L0
# B2: VH4/VL1 Agly-hIgG1(T299A) (antibody, V domains shown)
# VH: B1 VH with L4V, E6Q, G16E, A23K, R38K, R67K, R72A, D74T, K76P, L79A
# VL: B1 VL with V11L, I21M, S66D, V109L
# notes: also called H4/L1
# B3: VH0/VL1 Agly-hIgG1(T299A) (antibody, V domains shown)
# VH: B1 VH
# VL: B1 VL with V11L, I21M, S66D, V109L
# notes: also called H0/L1
# B4: VH5/VL1 Agly-hIgG1(T299A) (antibody, V domains shown)
# VH: EVQVQQSGGGLVKPGGSLRLSCKASGYTFTSYWMHWVKQAPGKGLEWVGAIYPGNSDTSYNQKFKGKATLSAVTSPNTAYLQMNSLKTEDTAVYYCTTTTYGYDWFAYWGQGTLVTVSS
# VL: B1 VL with V11L, I21M, S66D, V109L
# notes: also called H5/L1
# B5: VH2/VL0 Agly-hIgG1(T299A) (antibody, V domains shown)
# VH: B4 VH with Q5V, G16E, K23A, A68F, L70I, V73D, P76S
# VL: B1 VL
# notes: also called H2/L0
# B6: VH3/VL2 Agly-hIgG1(T299A) (antibody, V domains shown)
# VH: B4 VH with Q5V, Q6E, A68F, P76S
# VL: B1 VL with D1N, V11L, I21M, T22S, A49S, S66D, S69T, V109L
# notes: also called H3/L2
# B7: VH2/VL2 Agly-hIgG1(T299A) (antibody, V domains shown)
# VH: B4 VH with Q5V, G16E, K23A, A68F, L70I, V73D, P76S
# VL: B1 VL with D1N, V11L, I21M, T22S, A49S, S66D, S69T, V109L
# notes: also called H2/L2 (Agly-IgG1)
# B8: VH5/VL0 Agly-hIgG1(T299A) (antibody, V domains shown)
# VH: B4 VH
# VL: B1 VL
# notes: also called H5/L0
# B9: VH4/VL0 Agly-hIgG1(T299A) (antibody, V domains shown)
# VH: B4 VH with Q5V, G16E, A68F, L70I, V73D
# VL: B1 VL
# notes: also called H4/L0 (Agly-IgG1)
# B10: VH4/VL2 Agly-hIgG1(T299A) (antibody, V domains shown)
# VH: B4 VH with Q5V, G16E, A68F, L70I, V73D
# VL: B1 VL with D1N, V11L, I21M, T22S, A49S, S66D, S69T, V109L
# notes: also called H4/L2 (Agly-IgG1)
# B11: VH5/VL2 Agly-hIgG1(T299A) (antibody, V domains shown)
# VH: B4 VH
# VL: B1 VL with D1N, V11L, I21M, T22S, A49S, S66D, S69T, V109L
# notes: also called H5/L2 (Agly-IgG1)
# B12: VH2/VL2 Fab fragment (Fab, V domains shown)
# VH: B4 VH with Q5V, G16E, K23A, A68F, L70I, V73D, P76S
# VL: B1 VL with D1N, V11L, I21M, T22S, A49S, S66D, S69T, V109L
# notes: also called H2/L2 (Fab source); H2L2 hIgG1 Fab
# B13: VH4/VL0 Fab fragment (Fab, V domains shown)
# VH: B4 VH with Q5V, G16E, A68F, L70I, V73D
# VL: B1 VL
# notes: also called H4/L0 (Fab source); H4L0 hIgG1 Fab
# B14: VH5/VL2 Fab fragment (Fab, V domains shown)
# VH: B4 VH
# VL: B1 VL with D1N, V11L, I21M, T22S, A49S, S66D, S69T, V109L
# notes: also called H5/L2 (Fab source); H5L2 hIgG1 Fab
# B15: Mouse chimeric ALULA Fab fragment (Fab, V domains shown)
# VH: EVQVQQSGTVLARPGASVKMSCKASGYTFTSYWMHWVKQRPGQGLEWIGAIYPGNSDTSYNQKFKGKAKLTAVTSPNTAYMELSSLTNEDSAVYYCTTTTYGYDWFAYWGQGTLVTVSA
# VL: NIMMTQSPSSLTVSAGEKVTMSCKSSQSVLYSSNQKNYLAWYQQKPGQSPKLLIYWASTRESGVPDRFTGSGSGTDFTLTISSVQAEDLAVYYCHQYLSSLTFGAGTKLELK
# notes: also called Mouse chimeric ALULA (Fab source)
# Biological target: T1, human αvβ5 expressed on BaF3 cells (stably transfected with human αv and β5 subunits) (human, UniProt P06756 31-1048; P18084 24-799)
# T1 sequence (P06756 31-1048 limits assumed, chain 1 of 2): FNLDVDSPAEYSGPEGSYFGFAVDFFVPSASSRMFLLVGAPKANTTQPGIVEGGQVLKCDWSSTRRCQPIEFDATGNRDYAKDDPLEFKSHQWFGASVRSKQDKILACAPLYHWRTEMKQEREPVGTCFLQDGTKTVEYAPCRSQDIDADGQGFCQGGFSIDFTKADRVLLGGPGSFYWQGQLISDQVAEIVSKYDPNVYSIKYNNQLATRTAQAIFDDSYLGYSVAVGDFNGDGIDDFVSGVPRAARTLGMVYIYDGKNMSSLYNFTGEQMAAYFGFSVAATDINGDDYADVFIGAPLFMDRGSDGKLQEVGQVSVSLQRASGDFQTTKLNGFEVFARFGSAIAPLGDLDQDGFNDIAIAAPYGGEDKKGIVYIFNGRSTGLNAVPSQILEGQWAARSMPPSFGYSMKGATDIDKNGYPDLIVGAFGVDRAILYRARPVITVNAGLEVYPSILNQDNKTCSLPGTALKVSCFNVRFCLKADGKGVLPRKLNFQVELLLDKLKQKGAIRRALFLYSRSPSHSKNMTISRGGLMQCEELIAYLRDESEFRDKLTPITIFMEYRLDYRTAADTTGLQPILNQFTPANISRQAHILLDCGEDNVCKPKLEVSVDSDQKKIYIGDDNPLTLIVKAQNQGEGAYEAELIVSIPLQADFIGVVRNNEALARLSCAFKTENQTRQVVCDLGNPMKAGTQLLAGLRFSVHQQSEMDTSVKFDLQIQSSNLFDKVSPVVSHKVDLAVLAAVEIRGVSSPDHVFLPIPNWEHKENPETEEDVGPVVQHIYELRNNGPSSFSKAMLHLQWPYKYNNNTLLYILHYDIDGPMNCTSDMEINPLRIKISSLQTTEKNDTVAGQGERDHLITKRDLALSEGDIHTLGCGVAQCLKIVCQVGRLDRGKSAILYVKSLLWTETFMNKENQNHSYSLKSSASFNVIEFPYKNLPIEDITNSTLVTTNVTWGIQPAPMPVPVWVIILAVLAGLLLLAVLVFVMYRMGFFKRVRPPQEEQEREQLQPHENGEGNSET
# T1 sequence (P18084 24-799 limits assumed, chain 2 of 2): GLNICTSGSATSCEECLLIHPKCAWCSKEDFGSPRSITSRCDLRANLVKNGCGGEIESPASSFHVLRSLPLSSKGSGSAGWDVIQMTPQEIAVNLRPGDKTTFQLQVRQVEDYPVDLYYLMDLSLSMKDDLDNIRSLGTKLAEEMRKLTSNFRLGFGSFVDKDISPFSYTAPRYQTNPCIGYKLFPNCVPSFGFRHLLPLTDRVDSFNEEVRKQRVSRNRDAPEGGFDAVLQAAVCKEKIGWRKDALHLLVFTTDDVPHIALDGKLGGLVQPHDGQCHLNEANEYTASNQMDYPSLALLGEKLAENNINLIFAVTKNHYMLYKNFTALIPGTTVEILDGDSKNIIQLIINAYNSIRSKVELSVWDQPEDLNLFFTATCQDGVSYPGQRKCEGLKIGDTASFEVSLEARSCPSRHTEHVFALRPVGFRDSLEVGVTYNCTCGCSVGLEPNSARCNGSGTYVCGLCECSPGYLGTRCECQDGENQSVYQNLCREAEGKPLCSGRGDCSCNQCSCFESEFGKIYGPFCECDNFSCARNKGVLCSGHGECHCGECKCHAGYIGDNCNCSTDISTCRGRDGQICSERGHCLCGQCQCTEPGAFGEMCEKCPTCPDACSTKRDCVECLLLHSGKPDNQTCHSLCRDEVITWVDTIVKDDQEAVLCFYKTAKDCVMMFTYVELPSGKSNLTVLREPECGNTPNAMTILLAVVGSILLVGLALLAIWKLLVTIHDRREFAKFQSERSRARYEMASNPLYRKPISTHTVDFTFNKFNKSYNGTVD
# Test: cell-based or functional assay
row,"VN adhesion inhibition, αvβ5-BaF3 (IC50, nM) [nM]",Binder
1,3,B1
2,1,B2
3,2.2,B3
4,0.7,B4
5,1.3,B5
6,0.6,B6
7,0.4,B7
8,1,B8
9,1.1,B9
10,0.5,B10
11,0.9,B11

# Biological target: T2, human soluble αvβ5 protein (extracellular domains of human αv and β5 integrin subunits) (human, UniProt P06756 31-992; P18084 24-719)
# T2 construct: also called biotin-αvβ5; hsαvβ5
# T2 sequence (P06756 31-992 limits assumed, chain 1 of 2): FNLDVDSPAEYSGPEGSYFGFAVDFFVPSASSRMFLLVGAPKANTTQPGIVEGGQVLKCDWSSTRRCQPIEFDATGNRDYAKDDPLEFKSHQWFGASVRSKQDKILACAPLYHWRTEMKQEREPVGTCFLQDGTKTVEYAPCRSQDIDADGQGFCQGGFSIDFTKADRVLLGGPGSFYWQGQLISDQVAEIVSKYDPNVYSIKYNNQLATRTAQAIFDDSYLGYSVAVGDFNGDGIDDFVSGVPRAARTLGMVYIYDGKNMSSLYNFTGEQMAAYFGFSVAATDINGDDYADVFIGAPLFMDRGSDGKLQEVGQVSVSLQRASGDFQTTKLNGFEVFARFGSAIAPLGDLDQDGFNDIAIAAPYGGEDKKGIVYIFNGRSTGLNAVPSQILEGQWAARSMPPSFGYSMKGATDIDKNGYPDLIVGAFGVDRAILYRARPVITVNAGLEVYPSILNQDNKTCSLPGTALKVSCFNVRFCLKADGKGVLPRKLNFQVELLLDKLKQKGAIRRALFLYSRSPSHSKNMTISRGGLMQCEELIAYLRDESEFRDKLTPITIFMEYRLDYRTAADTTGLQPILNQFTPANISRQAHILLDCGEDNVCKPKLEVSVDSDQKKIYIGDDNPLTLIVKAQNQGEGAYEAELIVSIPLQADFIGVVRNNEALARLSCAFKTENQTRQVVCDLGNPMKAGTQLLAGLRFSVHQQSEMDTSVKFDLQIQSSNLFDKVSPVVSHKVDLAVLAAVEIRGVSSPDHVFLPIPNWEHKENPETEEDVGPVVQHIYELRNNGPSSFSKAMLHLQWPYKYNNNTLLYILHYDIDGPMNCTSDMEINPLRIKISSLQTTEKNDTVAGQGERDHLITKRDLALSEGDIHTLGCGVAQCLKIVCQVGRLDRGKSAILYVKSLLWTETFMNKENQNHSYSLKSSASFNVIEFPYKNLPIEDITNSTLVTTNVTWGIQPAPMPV
# T2 sequence (P18084 24-719 limits assumed, chain 2 of 2): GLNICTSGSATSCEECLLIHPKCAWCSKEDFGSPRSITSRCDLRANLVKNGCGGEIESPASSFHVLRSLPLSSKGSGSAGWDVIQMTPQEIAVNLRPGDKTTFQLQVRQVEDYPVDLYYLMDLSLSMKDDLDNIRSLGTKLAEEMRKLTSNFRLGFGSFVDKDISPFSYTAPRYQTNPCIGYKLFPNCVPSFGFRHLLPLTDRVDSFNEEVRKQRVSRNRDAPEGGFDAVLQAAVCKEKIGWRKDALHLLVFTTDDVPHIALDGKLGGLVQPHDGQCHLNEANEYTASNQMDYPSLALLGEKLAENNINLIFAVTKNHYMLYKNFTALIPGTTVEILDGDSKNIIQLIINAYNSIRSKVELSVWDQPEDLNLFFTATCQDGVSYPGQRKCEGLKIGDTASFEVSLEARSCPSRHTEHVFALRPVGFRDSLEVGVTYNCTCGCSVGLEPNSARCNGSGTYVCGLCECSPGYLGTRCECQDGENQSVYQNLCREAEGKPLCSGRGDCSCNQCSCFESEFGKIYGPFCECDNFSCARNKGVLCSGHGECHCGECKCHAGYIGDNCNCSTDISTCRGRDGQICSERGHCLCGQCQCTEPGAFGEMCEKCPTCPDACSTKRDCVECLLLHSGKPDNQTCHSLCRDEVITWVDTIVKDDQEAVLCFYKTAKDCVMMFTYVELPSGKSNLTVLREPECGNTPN
# Test: ELISA, Fab blocking of 2 nM soluble αvβ5 binding to immobilized human plasma vitronectin
# Protocol: Fab fragments of the four constructs of Example 6 were generated from the corresponding IgG1(N297Q) versions by digestion with papain. The ability of each Fab to block 2 nM soluble αvβ5 binding to immobilized human plasma vitronectin was determined by ELISA.
Fold change (IC50 against mouse chimeric ALULA) [fold],IC50 [nM],Binder
1.5,7.3,B12
1.6,7.5,B13
1.4,6.8,B14
,4.8,B15

# Biological target: T1, human αvβ5 expressed on BaF3 cells …
# Test: cell-based or functional assay
# Remark: another data set of the same source
row,"VN adhesion inhibition, αvβ5-BaF3 (IC50, nM) [nM]",Binder
1,1770,B1
2,59.8,B2
3,1620,B3
4,163,B4
5,476,B5
6,124,B6
7,292,B7
8,218,B8
9,74.9,B9
10,71.8,B10
11,83.2,B11

# Biological target: T2, human soluble αvβ5 protein …
# Test: competition ELISA against 1 nM murine ALULA on coated soluble human αvβ5
# Protocol: Competition ELISA: A 96-well microtiter plate was coated with 50 μl/well of 5 μg/mL soluble human αvβ5 protein at 4° C. overnight. The plate was washed with wash buffer (0.05% Tween-20 in PBS) four times in an automated plate washer. 300 μl/well of 1% BSA in PBS was added and incubated for 1 hr at 25° C. to block nonspecific binding. The plate was washed as above, and dilutions of humanized antibodies mixed with 1 nM murine ALULA in PBS containing 1% BSA, were added (50 μl/well). The plate was incubated for 1 hr at 25° C., washed, and then incubated for 40 minutes with 100 μl/well of […] goat anti-mouse antibody. Bound antibody was detected using 3,3′,5,5′-tetramethylbenzidine (TMB). Binding was indicated by the absorbency measured at 450 nm.
# The binding of each construct to soluble, purified human αvβ5 protein was determined by a competition ELISA with murine ALULA (FIG. 4). […] The remaining constructs behaved similarly, with version H4/L2 showing the lowest IC50 value in this assay.
row,IC50 [nM],Binder
1,18.3,B1
2,2.2,B2
3,14.2,B3
4,3,B4
5,3.4,B5
6,3.3,B6
7,2.8,B7
8,2.8,B8
9,2,B9
10,1.6,B10
11,2,B11

# Biological target: T2, human soluble αvβ5 protein …
# Test: ELISA, inhibition of soluble αvβ5 binding to coated human plasma vitronectin
# Protocol: Vitronectin Inhibition ELISA: 96-well microtiter plates were coated with 5 μg/ml purified human plasma vitronectin diluted in PBS (50 μl/well) at 4° C. overnight. After the coating solution was removed, the plates were blocked with 300 μl/well of 1% BSA/TBS at 25° C. for 1 hr. The plate was washed with wash buffer (0.05% Tween-20 in TBS containing 1 mM CaCl₂ and 1 mM MgCl₂), and dilutions of humanized antibodies mixed with 1 nM soluble αvβ5 protein in TBS containing 1% BSA, 1 mM CaCl₂ and 1 mM MgCl₂ were added (50 μl/well) and incubated at 25° C. for 1 hr. The plate was washed 4 times with wash buffer in an automated plate washer and incubated sequentially with 50 μl/well of the anti-beta5 monoclonal antibody 15F11 (at 0.5 ug/mL) in for 1 hr at 25° C. in TBS containing 1% BSA, 1 mM CaCl₂ and 1 mM MgCl₂. After washing the plate 4 times with wash buffer, 100 μl/well of a 1:5000 dilution of a peroxidase-conjugated goat anti-mouse antibody in TBS containing 1% BSA, 1 mM CaCl₂ and 1 mM MgCl₂ were added and incubated for 1 hr at 25° C. Bound protein was detected using the TMB substrate and indicated by the absorbency measured at 450 nm.
# In parallel, the humanized ALULA antibodies were tested in two adhesion assays. One measured the ability of each antibody to inhibit the binding of soluble αvβ5 to purified human plasma vitronectin. In the other assay, the murine BaF3 cell line was stably transfected with human αv and β5 subunits, and the adhesion of these cells to vitronectin was determined using a fluorescence endpoint.
row,IC50 [nM],Binder
1,11.1,B1
2,0.9,B2
3,11.9,B3
4,1.3,B4
5,2.4,B5
6,2.5,B6
7,1.1,B7
8,3.1,B8
9,1.7,B9
10,0.6,B10
11,1.3,B11

# Biological target: T2, human soluble αvβ5 protein …
# Test: ELISA, biotin-αvβ5 on streptavidin plate, unpurified antibody
# Protocol: Solid-Phase αvβ5 Binding Assay (ELISA): A 96-well microtiter plate was precoated with streptavidin (Thermo Scientific Reacti-Bind StreptAvidin Coated High Binding Capacity plate) was used. Biotinylated soluble αvβ5 protein (2 μg/mL) in TBS with 1% BSA was added to the wells, and the plate was incubated for 1 hr at 25° C. The plate was washed with wash buffer (0.05% Tween-20 in PBS), and purified humanized ALULA antibody in TBS containing 1% BSA, 1 mM CaCl2, and 1 mM MgCl2 were added (50 μl/well). The plate was incubated for 1 hr at 25° C., washed, and then incubated for 1 hr with 50 μl/well of […] goat anti-human secondary antibody. Bound antibody was detected using 3,3′,5,5′-tetramethylbenzidine (TMB). Binding was indicated by the absorbency measured at 450 nm.
# (§1) Screening of all combinations of heavy chain versions VH0, VH1, VH2, VH3, VH4, or VH5, with light chains VL0, VL1, VL2, or VL3 was carried out using unpurified proteins in conditioned cell media. The binding of each construct to biotin-conjugated human αvβ5 protein was determined using a solid-phase binding assay (ELISA) and by FACS, and the ability of each construct to block ligand binding was determined using a vitronectin cell adhesion assay (Table 1).
row,EC50 [nM],Binder
1,1.2,B1
2,0.4,B2
3,1.3,B3
4,0.3,B4
5,0.5,B5
6,0.7,B6
7,0.7,B7
8,0.4,B8
9,0.3,B9
10,0.4,B10
11,0.4,B11

# Biological target: T1, human αvβ5 expressed on BaF3 cells …
# Test: FACS on αvβ5-BaF3 cells, unpurified antibody
# Protocol: FACS Binding Assay: Cells were washed one time in PBS, and then resuspended in FACS buffer (1×PBS, 1% BSA, 1 mM CaCl₂, and 1 mM MgCl₂). 1×10⁶ cells were then incubated on ice for 1 hr in FACS buffer containing the test antibody in a total volume of 50 μl. After incubation, the cells were washed two times with ice cold FACS buffer, resuspended in 50 μl of FACS buffer containing 3 μg/ml goat anti-mouse IgG AlexaFluor488 (Jackson ImmunoResearch), and incubated on ice for 30 min. The cells were then washed twice with ice cold FACS buffer and fixed in 1% PFA overnight. Cell aggregates were removed by filtering through 40 μm filter plates (Millipore) and binding of the labeled secondary antibody was monitored by flow cytometry using a FACS Calibur (BD Biosciences).
# as §1
row,EC50 [nM],Binder
1,1120,B1
2,126,B2
3,798,B3
4,147,B4
5,354,B5
6,3310,B6
7,646,B7
8,244,B8
9,158,B9
10,156,B10
11,359,B11
